Measurements reported in a protein production outcome set (Wang et al. 2014).

experiment: label from the status in PepcDB records

Row | Sequence | protein production
1 | MDKLRGMETFIAVVECGSFTGAASRLGLSAVMVGKYIAQLESQLATRLLERNTRRQSLTDAGRVYFDEAKRVMEQVSIAESAVERLRLAPAGTLRVSAPTSFGASVIAPLTATFLQAWPAVRVELDLTNRMVDLVDEGVDLAIRIGEIHQEDLVARYLAPYRMVICAAPAYLARYGTPGTPEDLTDHLCLSHTVWTARNEWRLPGVEGEVRWKRDAVLRCNDGYALRQAAIAGAGLLMQPEVLLADALASGSLVRVLEAWTPQPRPVHLLWRQDRRPLPKLTQFIAHLQQGMADALTTTRASE | failed
2 | MDKNALRKQILQKRMALSTIEKSHLDQKINQKLVAFLTPKPCIKTIALYEPIKNEVTFVDFFFEFLKINQIRAVYPKVISDTEIIFIDQETNTFEPNQIDCFLIPLVGFNKDNYRLGFGKGYYDRYLMQLTRQQPKIGIAYSFQKGDFLADPWDVQLDLIINDE | not failed
3 | MDKQSSAGGVKRSVPCESNEVNETMPETPTGDSDPQPAPKKMKTSESSTILVVRYRRNVKRTSPEELLNDHARENRINPLQMEEEEFMEIMVEIPAK | failed
4 | MDKRRVRAIKTFGAAMETYLAHTRWADSTRAVRKHIIDRDILPVFQNRLLTEIQAEDLRILCNKVKERGAPATAVQIRDIVKQVYVYAIAHGEKVVNPADSVGPSSIALEHHHHHH | not failed
5 | MDKTKRKMIYETFMLILILLSLALLPYRNNFTFILNWIIWVIFTLDYLVRLYRADNKWHYVKTHPFQLIAIIPFYGGFRAARIVSFVHLLSITAMGRRYIVPIYSFFRSNGLNRFLMIFVLLVIIIPVPMVFIEPEINNYPDALWWAIVTATTVGYGDIVPVTPIGRILASIMMLFGIAFIGMITSTITNFFRAKKPTNSSTQRANKITQLISETPDLTKEEIAVVEQFLTLRKKELADENTKSDSE | failed
6 | MDKTQSYDIFLIAPPGLEQVLAEEATACGFDEPRVVPGGVETRGPWSEVMRANLVLRGAGRVLVRIGGFPAVHLAQLDKRARKFAWGDFLRPDRPIRVEAVSRKSKIYHAGAAKQRVERAITEELGAPISDEAEIRLMLRIERDFCTFSIDTSGEALHKRGHKEAVGKAPMRETMAALFLRQCGFDGAEPVLDPMCGSGSFVIEAAEWAAGLMPGRSRSFAFEQLAGFDAAQWQSMRNAAGAGGRPESLYSGSDRNAGAIDASRANATRAGVADFCAFHQRPVSDIRPPEGRPGLVIVNPPYGARIGDQARLRSLYGSLGKVLMDRFSGWRVGLITSEMSLARSTRLPFQAPGPVVDHGGIKVRLYQSVRLR | failed
7 | MDKTYILPIPNEYQNLARELSMQSGKIYSKAVSFLKKINRKGLRIKQKTFYRYMEWWIHQKSFILHSQSKQAAYQQAWTNYTATLRKIKKAKKKNKNTSKIRLPYRNKKYNKVCFKDSAIKLEGDNLILVNMKGAERIVIDNVRIGIKPKYAELLYHADKGKYYVHVVVEIAKEQEAKKRSGKTIAIDLGVIHPMVCFDGNKVVVYNGGVLNSILRYRNKKQSLLQSKISGCQKGSKRRGKLQRAKTKLLRRLSNLIRDVLGKYTSHLIGYCVENGITTIVMGDVKGIRNSKKKSNKVASQKVHQWLFRKISKMIEQKAEFAGIEVVYVKENMTSQICPVCGSKNKPLDRNYECKSCGFRYHRDGVGAVNIYRKYTGESLVVGRLACPTGVRFKSHLRCPVEWNTHPWDKNCSTGKVA | failed
8 | MDLCRSSILLLIIALLSPRTLSMRYELKSSKTKCIGEEIHENAMSIGKYFIVNPNEDNHPLPDSHKIIVKVMPPQGKNLHEADKVEAGQFSFTAYENGSYVACITAIDYKPETTLTIDFDWKTGVHSKEWTNVAKKSQVDMMEYQVKTLMDTVISIHEEMYYLREREEEMQELNRSTNSKMAWLSFGSLVVCLSVAGLQFWHLKTFFEKKKLI | failed
9 | MDLGKPMKSVLVVALLVIFQVCLCQDEVTDDYIGDNTTVDYTLFESLCSKKDVRNFKAWFLPIMYSIICFVGLLGNGLVVLTYIYFKRLKTMTDTYLLNLAVADILFLLTLPFWAYSAAKSWVFGVHFCKLIFAIYKMSFFSGMLLLLCISIDRYVAIVQAVSAHRHRARVLLISKLSCVGIWILATVLSIPELLYSDLQRSSSEQAMRCSLITEHVEAFITIQVAQMVIGFLVPLLAMSFCYLVIIRTLLQARNFERNKAIKVIIAVVVVFIVFQLPYNGVVLAQTVANFNITSSTCELSKQLNIAYDVTYSLACVRCCVNPFLYAFIGVKFRNDLFKLFKDLGCLSQEQLRQWSSCRHIRRSSMSVEAETTTTFSP | failed
10 | MDLIITFGLLTLVVLLEFIVVPAIILKRGTKFSTIYNYPIYIINSTEINAYSLTSVWGKFIVLTRGLVNGEDEEHIKAAIMHEVGHLKLNHHVKMSLYIISVIMVFTYLLGVNMLTLIPFALVALLVQRYLQRRLELGADRFALRFINKKMLEDLITKYDMKETTFLSTHPNIHVRLKNINE | failed
11 | MDLLIALLPALFWGSVVLINVLVGGGPYNQIRGTTLGTLIIGIILLLTGNAKFDDLAVIIVGLISGAFWALGQGYQLKSISLIGVSKTMPISTGLQLVGTTLFSAIFLGEWSTGIQVTLGLVAMVLLVIGIALTSIKGKNEASGGNNKFGKAIPILIISTVGYVVYVVVAQIFGVDGMNALFFQSIGMAIGGLILSAKHETSVKSTMWNIIPGVIWGIGNLFMFYSQPKVGVATSFSFSQLLVIVSTLGGIFLLGERKDKRQMIGIWAGIVLIIIAAFILGNLKG | failed
12 | MDLLSLLDINNTLVNIPIGGGYAMSWVEGFGTIFGLLCIWFASQEKTINYVFGLLNVTLFAVIFFQIQLYGLLLLQLFFFCANIYGWYAWTKPNSSGETLEVRWLSQSKLLAISGGSIAAIALLTIYIDPFFFSLATIAVDGMNLFGAELAEPVLAPDAFPFWDSTMTVLSIVAQILMTRKYVENWMLWIVINIISIGIYATQGVFAMSVQYSILMFIAANGAREWARTAKENINNKQVEKAIA | failed
13 | MDLRIKNKAKKIKAVFFDIDDTLRIKDTGYMPDSIKKVFESLQEKDILTGIASGRAPYGVVPEIRQLNPDFFVTINGSYVINHKGEELSNDPIPKDIIEKYVVWCQEIGIEYGFAGKDKAVVSKRTELVDKALVPVYGFCPVEPDFYKNHEVYHMWTFEDVGDSLQLSDELKEDVRLVRWHENSSDVIKNGISKASGLAHVLKKVHLKPENVLFFGDGPNDMEIFDYVGLKVAMGNGHGDLKEKADFITKNVEEDGILYALEELGLVEKELQFPQLDVTNDDAPMALIKTNYGDLKVKLFPKQAPKTVANFVALAKDGYYDGVIFHRVIKDFMIQGGDPTGTGMGGESIYGERFEDEFSEELYNLRGALSMANAGPNTNGSQFFIVQNQNLPYSAKELERGGWPKEIAAAYAENGGTPHLDRRHSVFGQLVDQASYEALDNIANVDTGVADKPIDDIVIESIEVIDDENRG | failed
14 | MDLVPLKLVTIVAESLLEKRLVEEVKRLGAKGYTITPARGEGSRGIRSVDWEGQNIRLETIVSEEVALRILQRLQEEYFPHYAVIAYVENVWVVRGEKYV | not failed
15 | MDMLHAMRTFTRVVECGSFAAAANALDISAAQVSRIVAELENQLQTRLLHRTTRRLRMSEAGERFLERARQIMLLTEEAVGEARGAHLTPRGHLRLHCPHGMGLLLMPLVAGYNMLYPEVVIELTLSQRNPDPLAEGHDVVITVDGALPDSQLIAVPLGNIFSIPCAAPGYLDTHGVPERPEDLHGHRCLRMAYPMYEGDWVFPQGVDQCVIAPNDSFSTNVADAMLVASELGMGIGLLPFYTASEAIGQGRLCRLLAPYRLRESALYAMYPSRHYLDAKVRTWIDYLKEQLPALFEGHARVVDDARYWR | failed
16 | MDMLKKRKLDENGIAMLHDGVSGSVSFRLVPQDARKITELFFADQLLDILQEAIVRHPDVLFFFF | failed
17 | MDMRSHEMIERRREDNGNNNGGVVISNIISTNIDDNCNGNNNNTRVSCNSQTLDHHQSKSPSSFSISAAAKPTVRYRECLKNHAASVGGSVHDGCGEFMPSGEEGTIEALRCAACDCHRNFHRKEMDGVGSSDLISHHRHHHYHHNQYGGGGGRRPPPPNMMLNPLMLPPPPNYQPIHHHKYGMSPPGGGGMVTPMSVAYGGGGGGAESSSEDLNLYGQSSGEGAGAAAGQMAFSMSSSKKRFRTKFTTDQKERMMDFAEKLGWRMNKQDEEELKRFCGEIGVKRQVFKVWMHNNKNNAKKPPTPTTTL | failed
18 | MDNDAAKKQLEFLKGGFKLLCQSGGAIFGDADFDGGNLEASEWIAMTEAQFLGGDYSEKDKLACVSGFFGGQAKFWFHKELSWIPFNSWSQVKDGLLLTFGNNRDKKRVLVELDLEMKHWIKDFDRKREPHKFLES | failed
19 | MDNVELSPATRWGMIATGLLQGLVCYLLIAWLSGKNHSWIVYGVPATVAFSSVLLFSVISFKQKRLWGWLALVFIATLGMSGWLKWQTDGMTPWRAEKALWDFGCYLLLMAMLLLPWIQQSLRIRNDSSRYRYFYQSVWHNVLILLVIFLANGLTWLVLLLWSELFKLVGITFFKTLFFATDWFIYLTLGLVTALAVILARTQSRLIDSIQKLFTLIATGLLPLVSLLTLMFIITLPFTGLSAISRHISAAGLLLTLAFLQLILMAIVRDPQKASLPWTGPLRCLIKTALLVAPLYVFIAAWALWLRVAQYGWTVDRLQGALAVLVLLVWSLGYFVSIVWRKGQNPLVLQGKVNLAVSLLVLVILVLLNSPVLDSMRISVNSHMARYQSGKNTPDQVTIYMLEHSGRYGRAALESLKSDAEYMKDPKRARDLLMALDGEQHLQQQISEKVLAENVLIAPGSGKPDATFWSALIQDRYNVMTCIEKDACVLVEQDLNSDGRAERILFAFDDERYIVYGFDPDKKEWQELTMSLLPRDITKEKLLTAAKDGKLGTKPKAWRDLVVDGERLDVNLNE | failed
20 | MDPAEMRYLEEEDGPLMKTIKGSITGFGAGTIYGTILATWKDVPRVERNVALPGLIRTLKMMGTHGLTFAAIGGVYIGVEQLVQNFRSKRDFYNGAIGGFVAGASVLGYRARSIPTAIAAGATLAVTSALIDSGGQTTRVDNGREYYPYTVEKRAEADS | not failed
21 | MDPESIMAADGTDSAPANGGLAMENVCVKENGAVSVETVDTTSESQNENSANSSTLDTIEHVKEAAEGTQVEHVDDSKCMKGEKAQRKPRHEKLSGGKNNSSVHIKKSKEGKSADAKVAASNGSVAPNVQTTNPLKSKSFNGREAQVTKQGKHDSAPAESADGEKVKPKSQKKQAHETSEDDTQSSNSPKADDGKPRKVGALPNYGFSFKCDQRAEKRKEFYVKLEEKTHAKEEEINSMQAKSKETQEAELRMLRKSLNFKATPMPSFYQEPQPPKTELKKIPPTRPKSPKLGRKKTASGADSEETQTPRLGRLSLDERASKDNPTAKGIMPTVDLKKQPVRKSLPRLPSQKTVLPDGKPAPAKAAIIPAKVRPEKKKLEKDAETVNQTSHPTEEEAQVTVSSNADVEDSHETVSPRMNEDRADKSIEVSEAVAVEH | failed
22 | MDPFASLAEAYEAWYGTPLGAYVIAEEERALKGLLPPGESLLEVGAGTGYWLRRLPYPQKVGVEPSEAMLAVGRRRAPEATWVRAWGEALPFPGESFDVVLLFTTLEFVEDVERVLLEARRVLRPGGALVVGVLEALSPWAALYRRLGEKGVLPWAQARFLAREDLKALLGPPEAEGEAVFLAPEAHPPYEEADLAGRRAGNRPALYLGRWR | not failed
